Consider one molecule from PMC7367191, “Intrinsic disorder is essential for Cas9 inhibition of anti-CRISPR AcrIIA5”.

The series addresses Cas9;AcrIIA5 (Streptococcus pyogenes;virulent phage …, UniProt Q99ZW2;A0A220GHA5 1-1368;1-140, |). The series can be described thus: EMSA; 5 mM Mg2+; AcrIIA5 0.4-4 uM supershifts Cas9-sgRNA 0.2 uM; EMSA: 20 mM Tris-HCl pH 7.5, 150 mM KCl, 5 mM MgCl2, 1 mM DTT, 5% glycerol, 25 C, 40 min; sgRNA 200 nM, Cas9 400 nM; 6% PAGE, SYBR Gold. The settings on record: protein: recombinant;recombinant; tags: N-terminal His6 (pET28); copies: 1;1; single strand, guide plus sgRNA scaffold hairpins. Background: A gel shift assay detects complexes by their altered migration in electrophoresis.

B1: Cas9 sgRNA (structured_RNA)
RNA: GGAAAUUAGGUGCGCUUGGCGUUUUAGAGCUAGAAAUAGCAAGUUAAAAUAAGGCUAGUCCGUUAUCAACUUGAAAAAGUGGCACCGAGUCGGUGCUU
With B1, the binding result was “binds”.
